# Experimental data from article PMC7277991, “Chemoenzymatic Synthesis and Biological Evaluation for Bioactive Molecules Derived from Bacterial Benzoyl Coenzyme A Ligase and Plant Type III Polyketide Synthase” (Biomolecules, 2020).
# T1: Malonyl-CoA synthetase from Rhizobium triofli (RtMCS) (Rhizobium leguminosarum, UniProt Q9ZIP5)
# T1 construct: gene matB; recombinant in E. coli, Ni-NTA purified
# T1 sequence (Q9ZIP5 1-504): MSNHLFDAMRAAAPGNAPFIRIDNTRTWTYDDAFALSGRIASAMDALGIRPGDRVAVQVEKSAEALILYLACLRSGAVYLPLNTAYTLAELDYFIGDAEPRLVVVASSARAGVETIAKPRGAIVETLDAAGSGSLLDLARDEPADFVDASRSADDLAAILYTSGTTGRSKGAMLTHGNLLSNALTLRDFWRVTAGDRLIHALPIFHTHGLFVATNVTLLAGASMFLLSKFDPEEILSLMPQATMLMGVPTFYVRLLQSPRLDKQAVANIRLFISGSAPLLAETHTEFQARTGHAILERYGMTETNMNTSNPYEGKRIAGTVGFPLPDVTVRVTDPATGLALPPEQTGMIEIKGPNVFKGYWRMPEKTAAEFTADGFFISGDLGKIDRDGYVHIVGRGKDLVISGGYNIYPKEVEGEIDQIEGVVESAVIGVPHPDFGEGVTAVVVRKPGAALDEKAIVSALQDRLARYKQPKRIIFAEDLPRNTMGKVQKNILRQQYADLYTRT
# B1: stilbene synthase (STS) from Pinus sylvestris (Pinus sylvestris) (protein)
# chain: MGGVDFEGFRKLQRADGFASILAIGTANPPNAVDQSTYPDFYFRITGNEHNTELKDKFKRICERSAIKQRYMYLTEEILKKNPDVCAFVEVPSLDARQAMLAMEVPRLAKEAAEKAIQEWGQSKSGITHLIFCSTTTPDLPGADFEVAKLLGLHPSVKRVGVFQHGCFAGGTVLRMAKDLAENNRGARVLVICSETTAVTFRGPSETHLDSLVGQALFGDGASALIVGADPIPQVEKACFEIVWTAQTVVPNSEGAIGGKVREVGLTFQLKGAVPDLISANIENCMVEAFSQFKISDWNKLFWVVHPGGRAILDRVEAKLNLDPTKLIPTRHVMSEYGNMSSACVHFILDQTRKASLQNGCSTTGEGLEMGVLFGFGPGLTIETVVLKSVPIQ
# notes: recombinant in E. coli BL21 (DE3), Ni-NTA purified, size-exclusion
# Legend:
# [1] = biological target: T2, benzoate CoA ligase (BadA) (Rhodopseudomonas palustris, UniProt Q6NC13, H333A/I334A, form not given); test: X-ray crystal structure; format: binding; details: acyl-adenylate intermediate in active site; thiolation conformation, no CoA
# T2 construct: recombinant in E. coli BL21 (DE3), Ni-NTA purified
# T2 sequence (Q6NC13 entry or part of it H333A/I334A, form open): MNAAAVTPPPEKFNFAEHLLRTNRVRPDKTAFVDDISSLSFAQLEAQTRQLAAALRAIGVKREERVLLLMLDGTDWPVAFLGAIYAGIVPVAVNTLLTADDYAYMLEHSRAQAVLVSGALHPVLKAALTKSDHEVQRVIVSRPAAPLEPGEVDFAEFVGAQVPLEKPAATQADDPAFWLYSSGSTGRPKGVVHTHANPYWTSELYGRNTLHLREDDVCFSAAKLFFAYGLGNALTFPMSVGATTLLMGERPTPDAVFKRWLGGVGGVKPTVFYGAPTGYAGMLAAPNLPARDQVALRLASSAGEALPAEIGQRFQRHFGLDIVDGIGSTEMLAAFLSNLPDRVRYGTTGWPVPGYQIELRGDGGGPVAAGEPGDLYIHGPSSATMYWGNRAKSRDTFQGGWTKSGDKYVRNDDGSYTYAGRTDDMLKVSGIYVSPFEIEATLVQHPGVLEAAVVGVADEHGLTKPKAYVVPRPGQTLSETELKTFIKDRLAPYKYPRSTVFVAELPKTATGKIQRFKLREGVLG
# [2] = biological target: T1, Malonyl-CoA synthetase from Rhizobium triofli (RtMCS); test: HPLC and LC-ESI-MS of malonyl-CoA; format: biochemical; details: 5 mM ATP, 2 mM CoA, 5 mM Mg2+, pH 7.5, room temperature; ATP regeneration
# [3] = substrate: Cc1ncc(C(=O)SCCNC(=O)CCNC(=O)[C@H](O)C(C)(C)COP(=O)(O)OP(=O)(O)OC[C@H]2O[C@@H](n3cnc4c(N)ncnc43)[C@H](O)[C@@H]2OP(=O)(O)O)s1; test: HPLC product formation, Michaelis-Menten fit; format: biochemical, Pinus sylvestris; details: 60 μM malonyl-CoA, 100 mM potassium phosphate pH 7.4, 1 mM EDTA, 30 °C
# Source text: (§1) HPLC product formation, Michaelis-Menten fit on stilbene synthase (STS) from Pinus sylvestris
# [4] = substrate: CC(C)(COP(=O)(O)OP(=O)(O)OC[C@H]1O[C@@H](n2cnc3c(N)ncnc32)[C@H](O)[C@@H]1OP(=O)(O)O)[C@@H](O)C(=O)NCCC(=O)NCCSC(=O)CCCCCc1ccccc1; test: HPLC product formation, Michaelis-Menten fit; format: biochemical, Pinus sylvestris; details: 60 μM malonyl-CoA, 100 mM potassium phosphate pH 7.4, 1 mM EDTA, 30 °C
# Source text: as §1
# [5] = substrate: Cc1ncsc1C(=O)SCCNC(=O)CCNC(=O)[C@H](O)C(C)(C)COP(=O)(O)OP(=O)(O)OC[C@H]1O[C@@H](n2cnc3c(N)ncnc32)[C@H](O)[C@@H]1OP(=O)(O)O; test: HPLC product formation, Michaelis-Menten fit; format: biochemical, Pinus sylvestris; details: 60 μM malonyl-CoA, 100 mM potassium phosphate pH 7.4, 1 mM EDTA, 30 °C
# Source text: as §1
# [6] = substrate: CC(C)(COP(=O)(O)OP(=O)(O)OC[C@H]1O[C@@H](n2cnc3c(N)ncnc32)[C@H](O)[C@@H]1OP(=O)(O)O)[C@@H](O)C(=O)NCCC(=O)NCCSC(=O)c1cnc(Cl)s1; test: HPLC product formation, Michaelis-Menten fit; format: biochemical, Pinus sylvestris; details: 60 μM malonyl-CoA, 100 mM potassium phosphate pH 7.4, 1 mM EDTA, 30 °C
# Source text: as §1
# [7] = substrate: CC(C)(COP(=O)(O)OP(=O)(O)OC[C@H]1O[C@@H](n2cnc3c(N)ncnc32)[C@H](O)[C@@H]1OP(=O)(O)O)[C@@H](O)C(=O)NCCC(=O)NCCSC(=O)CCCCCCc1ccccc1; test: HPLC product formation, Michaelis-Menten fit; format: biochemical, Pinus sylvestris; details: 60 μM malonyl-CoA, 100 mM potassium phosphate pH 7.4, 1 mM EDTA, 30 °C
# Source text: as §1
# [8] = substrate: CC(C)(COP(=O)(O)OP(=O)(O)OC[C@H]1O[C@@H](n2cnc3c(N)ncnc32)[C@H](O)[C@@H]1OP(=O)(O)O)[C@@H](O)C(=O)NCCC(=O)NCCSC(=O)CCCCc1ccc(F)cc1; test: HPLC product formation, Michaelis-Menten fit; format: biochemical, Pinus sylvestris; details: 60 μM malonyl-CoA, 100 mM potassium phosphate pH 7.4, 1 mM EDTA, 30 °C
# Source text: as §1
# [9] = substrate: CC(C)(COP(=O)(O)OP(=O)(O)OC[C@H]1O[C@@H](n2cnc3c(N)ncnc32)[C@H](O)[C@@H]1OP(=O)(O)O)[C@@H](O)C(=O)NCCC(=O)NCCSC(=O)Cc1ccc(-c2ccccc2)cc1; test: HPLC product formation, Michaelis-Menten fit; format: biochemical, Pinus sylvestris; details: 60 μM malonyl-CoA, 100 mM potassium phosphate pH 7.4, 1 mM EDTA, 30 °C
# Source text: as §1
molecule,measurement,setting,value
Cc1ncc(C(=O)OP(=O)(O)OC[C@H]2O[C@@H](n3cnc4c(N)ncnc43)[C@H](O)[C@@H]2O)s1 [2-methylthiazole-5-carboxyl-AMP],X-ray crystal structure,[1],2-methylthiazole-5-carboxyl-AMP (2M5C-AMP) (PDB entry 6M2T) intermediate were obtained
"Nc1ncnc2c1ncn2[C@@H]1O[C@H](COP(=O)(O)OC(=O)c2cnc(Cl)s2)[C@@H](O)[C@H]1O [2-chloro-1,3-thiazole-5-carboxyl-AMP]",X-ray crystal structure,[1],"in complex with a 2-chloro-1,3-thiazole-5-carboxyl-AMP (2Cl5C-AMP) (PDB entry 6M2U)"
O=C(O)CC(=O)O [malonic acid],HPLC and LC-ESI-MS of malonyl-CoA,[2],"Malonyl-CoA was chemo-enzymatically prepared from malonate, CoA, and ATP using RtMCS"
B1,Km,[3],3.87 µM
same,kcat,[3],0.000167 s⁻¹
same,Km,[4],43.89 µM
same,Km,[5],3.82 µM
same,kcat,[5],0.00267 s⁻¹
same,Km,[6],12.77 µM
same,kcat,[6],0.00317 s⁻¹
same,Km,[7],29.42 µM
same,kcat,[7],0.0045 s⁻¹
same,Km,[8],4.15 µM
same,Km,[9],23.24 µM
same,kcat,[9],0.0035 s⁻¹
